According to paper PMC9117880:
Values joined by “and” are separate entries in the source; they are usually repeats but may differ in a detail not shown here. Equal entries are not always repeated. Where two headings read alike, the source gives them in different places.

Tests used:
Experiment in all cases: MST
[1] = molecular target: SRS-MTBD (22/19) D3402A mutant (not stated | mouse)
[2] = molecular target: SRS-MTBD (22/19) D3402A mutant (not stated | mouse); remark: listed apart in the source
[3] = molecular target: SRS-MTBD (22/19) D3402A mutant (not stated | mouse); remark: listed apart in the source
[4] = molecular target: SRS-MTBD (22/19) D3402A mutant (not stated | mouse); remark: listed apart in the source

taxol-stabilized, unlabeled microtubules (porcine brain tubulin) (from UniProt P02550 1-451) (complex)
Kd [1]: 0.46 µM
Kd [2]: 0.53 µM
Kd [3]: 13 µM and 14.7 µM
Kd [4]: 5.49 µM
